This note sets out measurements from the nanobody polyreactivity screen of Harvey et al. (2022).

The series can be described thus: yeast display, Sf9 membrane polyspecificity reagent, FACS + sequencing; frameworks hold sequencing errors. The essentials: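 A synthetic nanobody library was expressed on Saccharomyces cerevisiae BJ5465 by galactose induction for 36–48 hours. The library was stained for 1 hour at 4 °C with 10% biotinylated, detergent-solubilized Sf9 membrane reagent and enriched with streptavidin microbeads before FACS. Low and high (top ~1%) gates were set on anti-HA fluorescence for expression and streptavidin fluorescence for reagent binding, and each polyreactivity label reflects the gate of origin.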
In the case of “QVQLVESGGGLVQAGGSLRLSCAASGLTFNVYAMGWYRQAPGKERELVASITKRGGSTYYADSVKGRFTISRDNAKNTVYLQMNSLKPEDTAVYYCAADGLTGSIYRATGYYWGQGTQVTVSS”, the “polyreactivity (PSR sort gate)” value is on record as “high polyreactivity”.
Turning to “QVQLVESGGGLVQAGGSLRLSCAASGLTFPDNAMGWYRQAPGKERELVAAITIDGSTYYADSVKGRFTISRDNAKNTVYLQMNSLKPEDTSVYYCNALVGVPYAMYYWGQGTQVTVSS”, the “polyreactivity (PSR sort gate)” value is given as “low polyreactivity”.
As for “QVQLVESGGGLVQAGGSLRLSCAASGLTFPHYTMGWYRQAPGKEREFVARITGSGGRTYYADSVKGRFTISRDNAKNTVDLQRNSLKPEVTGVYYCARDRGYQSGYDYWGQGTQVSVSS”, the entry is “high polyreactivity”; as for “QVQLVESGGGLVQAGGSLRLSCAASGLTFPPNAMGWYRQAPGKEREFVAVISSGGGSTYYADSVMGRFTISRDHAKNTVYLQMNSLKPEDTAVYNCATEYQDGDTEYYYWGQGTQVTVSS”, “low polyreactivity”; as for “QVQLVESGGGLVQAGGSLRLSCAASGLTFPPYAMGWYRQAPGKERELVATISFSTGNTYYADSVKGRFTISRDNAKNTVYLQLNSLKPEDTADYYCNKVFVLPYKFVAWFDSWGQGTQVTVSS”, “low polyreactivity”.
As for “QVQLVESGGGLVQAGGSLRLSCAASGLTFPSNAMGWYRQAPGKERELVAAISKRGGRTFYADSVKGRFTISRDNAKNTVYLQMNSLKPEDTAVYYCATPYAYPGTVQYAGYNYWGQGTQVTVSS”, the entry is “high polyreactivity”; as for “QVQLVESGGGLVQAGGSLRLSCAASGLTFPYYAMGWYRQAPGKERELVAAISSSGGSTYYADSVKGRFTISRDNAKNTVYLQMNSLKPEDTAVYYCAAQRYINYDYWGQGTQVTVSS”, “high polyreactivity”; as for “QVQLVESGGGLVQAGGSLRLSCAASGLTFPYYVMGWYIQAPGKERELVAAIDDGGGSTYYADSVKGRFTISRDNAKNTVYLQMNSLKPEDTAVYYCAAQVDYLAHYGYWGQGTQVTVSS”, “low polyreactivity”.
“QVQLVESGGGLVQAGGSLRLSCAASGLTFQLYTMGWYRQAPGKERELVAAISRSGTRTYYADSVKGRFTISRDNAKNTVYLQMNSLKPEDTAVYYCAARTDGYRNNYWGQGTQVTVSS”: the “polyreactivity (PSR sort gate)” value is “high polyreactivity”.
For “QVQLVESGGGLVQAGGSLRLSCAASGLTFQVNDMGWYRQAPGKERELVAGITFSGGSTYYPDSVKWRITISRDNAKTTVYLQMNSLKPEDTAVYYCADDTIIGYLYHNVVPTFDYWGQGTQVTVSS”, the “polyreactivity (PSR sort gate)” value was “low polyreactivity”.
On to “QVQLVESGGGLVQAGGSLRLSCAASGLTFQWNAMGWYRQATGKERELVAVITDIGDSTYYADSVKGRFTISRDNAKNTVYLQMNSLKPEDTAVYYCAADFGTISIDVYSWMDYWGQGTQVTVSS”, for which the “polyreactivity (PSR sort gate)” value was “low polyreactivity”.
Consider “QVQLVESGGGLVQAGGSLRLSCAASGLTFQYNTMGWYRQAPGKERELVARINWGGDSTYYADSVKGRFTISRDNAKNTVYLQMNSLTPEDTAVYYCAAPGYSGRYGYYTYYLYDYWGQGTQVTVSS”, for which the “polyreactivity (PSR sort gate)” value is listed as “low polyreactivity”.
In the case of “QVQLVESGGGLVQAGGSLRLSCAASGLTFQYYAMGWYRQAPGKERELVATISGRAGRTYYADSVKGRFTISRDNAKNTVYLQMNSLKPEDTAVYYCAAEVDYSLYTWYEYYYWGQGTQVTVSS” it was “high polyreactivity”; in that of “QVQLVESGGGLVQAGGSLRLSCAASGLTFRANDMGWYRQAPGKERELVAGITESGDSTYYADSVKGRFTISRDNAKNTVYLQMNSLKPEDTAVYYCAAGSYYWYWYRVGEWYAYEYWGQGTQVTVSS”, “low polyreactivity”.
As for “QVQLVESGGGLVQAGGSLRLSCAASGLTFRAYVMGWYRQAPWKERELVAAISVSGGSTYYADSVKGRFTISRDNAKNKVYLQLNSLKPEDTAVYYFAAAYSSSKSSGNYYYWGLGTQVTVSS”, the entry is “high polyreactivity”.
For “QVQLVESGGGLVQAGGSLRLSCAASGLTFRFYTMGWYRQAPGKERELVAAISTSGGSTYYADSVKGRFTISRDNAKNTVYLQMNSLKPEDTAVYYCNAQVWFYYFQSGYDYWGQGTQVTVSS”, the “polyreactivity (PSR sort gate)” value is given as “low polyreactivity”.
As for “QVQLVESGGGLVQAGGSLRLSCAASGLTFRIYAMGWYRQAPGKERELVAAISWNGGSTYYADSVKGRFTISRDNAMNTVYLQMNSLKPEDTAVYYFNADPSDRRYPHTWTKMGYWGQGTQVTVSS”, the entry is “low polyreactivity”; as for “QVQLVESGGGLVQAGGSLRLSCAASGLTFRKYAMGWYRQAPGKERELVAAITRGGSTNYADSVKGRFTISRDNAKNTVYLQMNSLKPEDTAVYYCAAQYTYRFPYPGYATTHDYWGQGTQVTVSS”, “high polyreactivity”; as for “QVQLVESGGGLVQAGGSLRLSCAASGLTFRKYAMGWYRQAPGKERELVAGISSGGSTYYADSVKGRFTISRDNAKNTVYLQMNSLKPEDTAVYYCAAKALRTMYYWGQGTQVTVSS”, “high polyreactivity”.
On to “QVQLVESGGGLVQAGGSLRLSCAASGLTFRKYVMGWYRQAPGKERELVAAISGGGGSTYYADSVKGRFTISRDNAKNTVYLQMNSLKPEDTAVYYCAAVIYRGYYYWGQGTQVTVSS”, for which the “polyreactivity (PSR sort gate)” value is “high polyreactivity”.
In the case of “QVQLVESGGGLVQAGGSLRLSCAASGLTFRNYAMGLYRQAPGKERELDAAISRSGGSTYYADSVKGRFTISRDYAKNTVYLHMNSLKPEDTAVYYCATRTYRESTYDYWGQGTQVTVSS” it was “high polyreactivity”; in that of “QVQLVESGGGLVQAGGSLRLSCAASGLTFRNYAMGWYRQAPGKEREVVADISWSGGSTYYADSVKGRFTISRDNAKITVYLQMNSLKPEDTAVYYCAARFHYPGGPRYYYWGQGTQVTVSS”, “high polyreactivity”.
As for “QVQLVESGGGLVQAGGSLRLSCAASGLTFRRYDMGWNRQAPGKEREFVAAITWSTGSTYYADSVKGRFTISRDNAKNTDYLPMNSLKPEDTAVYYCAARSGYFYRYYKYDYWGQGTQVTVSS”, the entry is “high polyreactivity”; as for “QVQLVESGGGLVQAGGSLRLSCAASGLTFRVYAMGWYRQAPGKERELVAAITGGGRTYYADSVKGRFTISRDNAKNTVYLQMNSLKPEDTAVYYCAAAGYYVWGQGTQVTVSS”, “high polyreactivity”; as for “QVQLVESGGGLVQAGGSLRLSCAASGLTFRWYAMGWYRQAPGKERELVAAISSGGSTNYADSVKGRFTISRDNAKNTVYLQMNSLKPEDTAVDYCNAKGRPWFKYDYWGQGTQVTVSS”, “high polyreactivity”.
As for “QVQLVESGGGLVQAGGSLRLSCAASGLTFRYYAMGWYRQAPGKERELVAAISSRGASTYYADSVKGRFTISRDNAKNTVYLQMNSLKPEDTAVYYCAVRTYVYHWSFSSLPYDYWGEGTQVTVSS”, the entry is “high polyreactivity”; as for “QVQLVESGGGLVQAGGSLRLSCAASGLTFRYYAMGWYRQEPGKERELVATITRAGRTNYADSVKGRFTISRDNAKNTVYLQMNSLKPEDTAVYYCNAKQSGKYPRVVGYDYWGQGTQVTVSS”, “high polyreactivity”; as for “QVQLVESGGGLVQAGGSLRLSCAASGLTFRYYAMVWYRQAPGKERELVATITRAGRTNYADSVKGRFTISRDNAKNTVYLQMNSLKPEDTAVYYCATKRVLTGFDSWGQGTQVTVSS”, “high polyreactivity”.
On to “QVQLVESGGGLVQAGGSLRLSCAASGLTFRYYTMGWYRQAPVKERELVAAISRGGSTTYADSVKGRFTISRVNAKNTVYLQMNSLKPEDTAVYYCAVRPGTWSNYYAGGKKYDYWGLGTQVTVSS”, for which the “polyreactivity (PSR sort gate)” value is “high polyreactivity”.
As for “QVQLVESGGGLVQAGGSLRLSCAASGLTFSAYAMGWYRQAPGKERELVAAITSSGGSTYADSVKGRFTISRDNAKNTVYLQMNSLKPEDTAVYYCAARVVRYGYKYYYWGQGTQVTVSS”, the entry is “low polyreactivity”; as for “QVQLVESGGGLVQAGGSLRLSCAASGLTFSENAMGWYRQAPGKERELVAAISWSGTTTYYADSVKGRFTISRDNAKNTVYLQMNSLKPEDTAVYYCAADTIFYGYWGQGTQVTVSS”, “low polyreactivity”; as for “QVQLVESGGGLVQAGGSLRLSCAASGLTFSHYAMGWYRQAPGKERELVAGISSRGGNTYYADSVKGRFTISRDYAKNTVYLQMNSLKPEDTAVFYCNAPKPKRAYDYWGQGSQVTVSS”, “high polyreactivity”.
With “QVQLVESGGGLVQAGGSLRLSCAASGLTFSKNARGWYRQSPGKDRELVATISYSSSRTNYADSVKGRFTISRVNAKNPVYLQMNSLKPEDTAVYYCAARVYNGWPTHYDYWGQGTQVTVSS”, the “polyreactivity (PSR sort gate)” value is recorded as “high polyreactivity”.
In the case of “QVQLVESGGGLVQAGGSLRLSCAASGLTFSKYVMGWYRQAPGKERELVAGISRSSGSTYYADSVKGRFTISRDNAKNTVYLQMNSLKPEDTAVYYCAARARRKYDYWGQGTQVTVSS” it was “high polyreactivity”; in that of “QVQLVESGGGLVQAGGSLRLSCAASGLTFSPYAKGWYRQAPGKERELVASITNGGRTYYADSVKGRFTISRDNAKNTVYLQMNSLKPEDTAVYYCNAAYFGWFNTYNYWGQGTQVTVSS”, “high polyreactivity”; in that of “QVQLVESGGGLVQAGGSLRLSCAASGLTFSPYAMGWYRQAPGKERELVATITIGGSTKYADSVKGRFTISRDNAKNTVYLQMNSLKPEDPAVYYCAVRSGYVTRRYDYWGQGTQVTVSS”, “low polyreactivity”.
As for “QVQLVESGGGLVQAGGSLRLSCAASGLTFSRNAMGWYRQAPGKERELVAAINWRGGRTYYADSVKGRFIISRDNAKNTVYLQMNSLKPEDTAVYYCAADPANRCMYYWGQGTQVTVSS”, the entry is “high polyreactivity”; as for “QVQLVESGGGLVQAGGSLRLSCAASGLTFSRNGMGWYRQAAGKERELVAAISTSGDSTDYADSVKGRFTISRDYAKNTVYLQMNSLKPEDTAVYYCNRDFSLVVHYNFDYWGQGTQVTVSS”, “low polyreactivity”; as for “QVQLVESGGGLVQAGGSLRLSCAASGLTFSRYAMGWYRQAPGKERELVAAIKGRGGSTYYADSVKGRFTISRDNAKNTVYLQMNSLKPEDTAVYYCAATTRGSYSGNRPAYYWGQCTQVTVSS”, “high polyreactivity”.
Regarding “QVQLVESGGGLVQAGGSLRLSCAASGLTFSSYAMGWYRQAPGKERELVAVISRTGGSTYYADSVKGRFTISRDNAKNTVYLQMNSLKPEDTAVYYCAARSYNGWRYDSWGQGTQVTVSS”, the “polyreactivity (PSR sort gate)” value is “high polyreactivity”.
As for “QVQLVESGGGLVQAGGSLRLSCAASGLTFSSYTMGWYRQAHGKERELVAAINWNGGDTYYADSVKGRFTISRDNAKNTVYLQMHSLKPEDTAVYYCNADYPYFYRFTAEYDYCGQGTQVTVSS”, the entry is “low polyreactivity”.
